We go through 167 variants from the RNAGym collection of RNA variant scans (doi:10.7554/elife.80360).

B1: HDV Ribozyme (parent)
chain: GGCCGGCAUGGUCCCAGCCUCCUCGCUGGCGCCGGCUGGGCAACAUUCCGAGGGGACCGUCCCCUCGGUAAUGGCGAAUGGGACCCA

This data set covers variants of B1. Nature of the data set: self-cleavage, relative activity (ratio to wild type); higher = more cleavage; co-transcriptional.
On to G17U G29U, for which the self-cleavage worked out at 0.0554.

As to G17U G29C, the self-cleavage came to 0.0773.

On to C18A A45G, for which the self-cleavage is 0.0594.

Turning to C18A A45U, the self-cleavage was 0.172.

Take C18U C84G: the self-cleavage amounted to 0.308.

With C18U C84U, the self-cleavage is 0.44.

Consider C18U C84A, for which the self-cleavage came to 0.573.

As for C18U G39A, the self-cleavage worked out at 0.0302.

Take C18U G39U: the self-cleavage amounted to 0.0997.

As to C18U C86A, the self-cleavage was 0.82.

C18U C86U: the self-cleavage came out at 0.886.

As for C18U C21G, the self-cleavage came out at 0.151.

Turning to C18G C41A, the self-cleavage came to 0.196.

As for C18U G82C, the self-cleavage was found to be 0.166.

In the case of C18G U60G, the self-cleavage was 0.0791.

As to C18A U20C, the self-cleavage was 0.

C18A U20G: the self-cleavage came to 0.249.

In the case of C18G G74A, the self-cleavage was found to be 0.0449.

C18G G74U: the self-cleavage was 0.116.

On to C18G G74C, for which the self-cleavage was 0.142.

In the case of C18U G35A, the self-cleavage worked out at 0.0906.

As to C18U G35U, the self-cleavage worked out at 0.0791.

For C18A C84A, the self-cleavage worked out at 0.151.

Turning to C18A C84G, the self-cleavage was determined as 0.0437.

Turning to C18A G81U, the self-cleavage is 0.0817.

Take C18A G81A: the self-cleavage came out at 0.0755.

With C18A G81C, the self-cleavage came to 0.163.

In the case of C18U G53U, the self-cleavage is 0.918.

In the case of C18A C62G, the self-cleavage was 0.135.

As to C18U C66A, the self-cleavage came to 0.407.

On to C18U C66U, for which the self-cleavage came out at 0.801.

On to C18A A83U, for which the self-cleavage turned out to be 0.237.

As for C18A A83C, the self-cleavage worked out at 0.0831.

Consider C18G C21G, for which the self-cleavage stood at 0.175.

Turning to C18G C21U, the self-cleavage is 0.128.

For C18U C64U, the self-cleavage stood at 0.751.

On to C18U C64G, for which the self-cleavage was determined as 0.736.

With C18U C64A, the self-cleavage is 0.332.

With C18A C24G, the self-cleavage came to 0.107.

For C18A G31U, the self-cleavage was 0.141.

In the case of C18A G31A, the self-cleavage came out at 0.0898.

As for C18A A70C, the self-cleavage was 0.128.

For C18A A70G, the self-cleavage stood at 0.

Consider C18G A70U, for which the self-cleavage turned out to be 0.111.

For the variant C18G A70G, the self-cleavage came out at 0.161.

Consider C18A G53A, for which the self-cleavage came to 0.0652.

On to G17U U69A, for which the self-cleavage worked out at 0.306.

With G17U U69G, the self-cleavage is 0.534.

For C18A C21G, the self-cleavage amounted to 0.131.

As for C18G C64A, the self-cleavage is 0.

As for C18U U23G, the self-cleavage was found to be 0.383.

On to C18U A83U, for which the self-cleavage amounted to 0.243.

Take C18A U47C: the self-cleavage is 0.0536.

As to C18A C30U, the self-cleavage came to 0.

Turning to C18U C58G, the self-cleavage turned out to be 0.778.

Take C18G A78U: the self-cleavage worked out at 0.0723.

Consider G17U G67U, for which the self-cleavage is 0.609.

As to G17U G67C, the self-cleavage was 0.628.

Take C18G U23C: the self-cleavage is 0.227.

Turning to C18G U23A, the self-cleavage was 0.

For G17U G73U, the self-cleavage was 0.222.

Take G17U G73A: the self-cleavage was 0.233.

For G17U G73C, the self-cleavage stood at 0.145.

As for C18G G81C, the self-cleavage is 0.

For C18G G81A, the self-cleavage was found to be 0.277.

For the variant C18G G52A, the self-cleavage was found to be 0.156.

As for C18G C62A, the self-cleavage amounted to 0.113.

Consider C18A G28U, for which the self-cleavage was 0.

Take C18A G28A: the self-cleavage is 0.128.

In the case of C18U C49U, the self-cleavage came to 0.587.

Take C18G U65C: the self-cleavage was determined as 0.175.

With C18G G34C, the self-cleavage worked out at 0.104.

C18G G34U: the self-cleavage turned out to be 0.

With C18U C57A, the self-cleavage came out at 0.958.

C18U C57U: the self-cleavage is 0.867.

Turning to C18G A77U, the self-cleavage amounted to 0.

For the variant G17U G38A, the self-cleavage came to 0.0755.

C18G G40U: the self-cleavage is 0.0489.

Consider C18G G40A, for which the self-cleavage came out at 0.175.

Turning to C18G G40C, the self-cleavage came out at 0.0852.

On to C18A U65G, for which the self-cleavage was 0.19.

For C18G G80A, the self-cleavage is 0.0563.

Take C18G G80U: the self-cleavage turned out to be 0.0621.

Turning to C18U A78C, the self-cleavage came to 0.185.

Take G17U G54A: the self-cleavage is 0.326.

For the variant C18A G68C, the self-cleavage worked out at 0.212.

On to C18A G68A, for which the self-cleavage came to 0.237.

As to G17U G68U, the self-cleavage worked out at 0.611.

Consider C18A G74U, for which the self-cleavage was 0.0528.

For C18A G74A, the self-cleavage is 0.0674.

Regarding C18A G74C, the self-cleavage came out at 0.0791.

Turning to C18G G28C, the self-cleavage was 0.0573.

In the case of C18G G28A, the self-cleavage was 0.0346.

In the case of C18U U37C, the self-cleavage came to 0.554.

As to C18U U37G, the self-cleavage was 0.128.

Turning to C18U U37A, the self-cleavage worked out at 0.0773.

As to G17U U72A, the self-cleavage was determined as 0.119.

For C18A C41A, the self-cleavage was determined as 0.125.

For the variant C18A C41G, the self-cleavage worked out at 0.0554.

For the variant C18A G76C, the self-cleavage turned out to be 0.14.

As for C18A G76U, the self-cleavage is 0.228.

For the variant C18A C63A, the self-cleavage was found to be 0.0692.

As for C18A C63U, the self-cleavage was determined as 0.145.

In the case of C18G C32A, the self-cleavage was 0.166.

Turning to C18G C32U, the self-cleavage was found to be 0.172.

With G17U G50A, the self-cleavage was 0.466.

For C18A A71G, the self-cleavage worked out at 0.0739.

As for C18A A71C, the self-cleavage was found to be 0.0504.

Take C18U A43U: the self-cleavage worked out at 0.138.

Turning to G17U C86A, the self-cleavage came to 0.369.

As for C18G C22A, the self-cleavage was determined as 0.172.

As for C18G C61A, the self-cleavage turned out to be 0.222.

In the case of C18G C61G, the self-cleavage is 0.219.

For the variant G17U G40A, the self-cleavage was found to be 0.246.

For G17U U27G, the self-cleavage came out at 0.522.

As to G17U U27A, the self-cleavage came to 0.486.

Take C18G G35A: the self-cleavage amounted to 0.156.

Consider C18G G35U, for which the self-cleavage was 0.0415.

As for C18A A43G, the self-cleavage was 0.192.

In the case of C18A A43C, the self-cleavage turned out to be 0.0462.

For the variant C18A A43U, the self-cleavage stood at 0.0339.

As for C18U G38U, the self-cleavage was found to be 0.0875.

Take C18U G38C: the self-cleavage turned out to be 0.0297.

Turning to G17U U47G, the self-cleavage is 0.35.

In the case of C18A U69G, the self-cleavage came out at 0.232.

With C18G A83G, the self-cleavage is 0.0707.

On to C18G A83C, for which the self-cleavage was 0.192.

With C18A U60G, the self-cleavage was determined as 0.

Regarding C18A U60A, the self-cleavage came to 0.135.

For the variant C18A U60C, the self-cleavage stood at 0.

Regarding C18U G40U, the self-cleavage is 0.314.

C18A G34A: the self-cleavage is 0.0326.

On to C18A G34C, for which the self-cleavage was found to be 0.136.

On to C18U C75G, for which the self-cleavage worked out at 0.133.

On to C18U C75U, for which the self-cleavage was found to be 0.134.

On to C18A G82U, for which the self-cleavage is 0.0723.

For C18U G54A, the self-cleavage turned out to be 0.295.

Take C18G C30G: the self-cleavage stood at 0.222.

Consider C18U C26G, for which the self-cleavage is 0.869.

For the variant C18U G52A, the self-cleavage came to 0.737.

Consider C18U G52U, for which the self-cleavage was 0.594.

Consider C18U G52C, for which the self-cleavage came to 0.774.

Take C18A C86G: the self-cleavage was found to be 0.185.

For the variant C18G G38A, the self-cleavage came out at 0.0978.

On to C18U C32A, for which the self-cleavage was 0.166.

On to G17U U37G, for which the self-cleavage was determined as 0.0831.

On to G17U U37A, for which the self-cleavage was determined as 0.185.

In the case of C18U A51U, the self-cleavage is 0.701.

C18G A51G: the self-cleavage stood at 0.

In the case of C18G A51U, the self-cleavage came out at 0.0489.

On to C18G A51C, for which the self-cleavage is 0.208.

Take C18A G35C: the self-cleavage stood at 0.147.

On to C18A G35U, for which the self-cleavage was 0.0604.

As to C18A C44G, the self-cleavage came to 0.193.

As to C18A C44A, the self-cleavage is 0.17.

Regarding C18A C44U, the self-cleavage was determined as 0.219.

For the variant C18A G73U, the self-cleavage is 0.0941.

Take C18U G55A: the self-cleavage was 0.919.

Turning to C18U G55U, the self-cleavage amounted to 0.595.

With C18G U79G, the self-cleavage came out at 0.133.

Regarding C18G C33U, the self-cleavage is 0.128.

As for C18G U47G, the self-cleavage is 0.256.

Turning to C18U C63A, the self-cleavage was 0.293.

In the case of C18G U27G, the self-cleavage was determined as 0.128.

Take C18G U72G: the self-cleavage was determined as 0.

Turning to C18G U72C, the self-cleavage worked out at 0.

As for C18G C49U, the self-cleavage came to 0.138.
